Measured values from PMC4619763, “A Novel Highly Thermostable Multifunctional Beta-Glycosidase from Crenarchaeon Acidilobus saccharovorans” (Archaea, 2015).
One block for each molecule: values may come before it.

Experiments:
Asac_1390 = biological target: T1, Asac_1390 (Acidilobus saccharovorans, UniProt D9PZ08); assay: oNPGal hydrolysis, Cornish-Bowden and Dixon plots; format: biochemical; conditions: mixed inhibition, dissociation constant of the EIS complex; otherwise as the row above
T1 construct: full length, 490 residues, about 55 kDa on SDS-PAGE; pQE60 NcoI/BglII, expressed in E. coli DLT1270 pRARE2; purified by double heat treatment; no secretion signal; no tag mentioned (reverse primer carries the stop codon)
T1 sequence (D9PZ08 1-490): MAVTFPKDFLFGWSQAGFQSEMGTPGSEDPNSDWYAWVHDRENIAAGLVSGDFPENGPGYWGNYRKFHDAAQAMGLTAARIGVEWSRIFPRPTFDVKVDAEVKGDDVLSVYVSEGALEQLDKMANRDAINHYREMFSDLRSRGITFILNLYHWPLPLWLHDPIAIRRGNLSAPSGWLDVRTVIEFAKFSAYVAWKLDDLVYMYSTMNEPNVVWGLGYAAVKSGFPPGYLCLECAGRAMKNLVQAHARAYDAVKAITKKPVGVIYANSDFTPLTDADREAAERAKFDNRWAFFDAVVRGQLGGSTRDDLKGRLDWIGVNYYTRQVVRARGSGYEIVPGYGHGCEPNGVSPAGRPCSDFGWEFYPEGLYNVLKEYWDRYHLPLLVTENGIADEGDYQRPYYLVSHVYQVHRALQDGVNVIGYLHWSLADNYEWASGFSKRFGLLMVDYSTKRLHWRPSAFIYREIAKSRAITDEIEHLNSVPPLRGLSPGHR

purified protein [1] = substrate: O=[N+]([O-])c1ccc(O[C@@H]2OC[C@@H](O)[C@H](O)[C@H]2O)cc1; assay: purified protein; format: biochemical, Acidilobus saccharovorans; conditions: 0.1 M sodium phosphate pH 7.0, 93°C
purified protein [2] = substrate: O=[N+]([O-])c1ccc(O[C@@H]2O[C@H](CO)[C@@H](O)[C@H](O)[C@H]2O)cc1; assay: purified protein; format: biochemical, Acidilobus saccharovorans; conditions: 0.1 M sodium phosphate pH 7.0, 93°C
purified protein [3] = substrate: O=[N+]([O-])c1ccc(O[C@@H]2O[C@H](CO)[C@@H](O)[C@H](O)[C@@H]2O)cc1; assay: purified protein; format: biochemical, Acidilobus saccharovorans; conditions: 0.1 M sodium phosphate pH 7.0, 93°C
purified protein [4] = substrate: O=[N+]([O-])c1ccc(O[C@@H]2O[C@H](CO)[C@H](O)[C@H](O)[C@H]2O)cc1; assay: purified protein; format: biochemical, Acidilobus saccharovorans; conditions: 0.1 M sodium phosphate pH 7.0, 93°C
purified protein [5] = substrate: O=[N+]([O-])c1ccccc1O[C@@H]1O[C@H](CO)[C@H](O)[C@H](O)[C@H]1O; assay: purified protein; format: biochemical, Acidilobus saccharovorans; conditions: 0.1 M sodium phosphate pH 7.0, 93°C

K i′ (Asac_1390): 158 mM
Molecule: OC[C@H]1OC(O)[C@H](O)[C@@H](O)[C@@H]1O (stereo partly drawn) [glucose]

B1: Asac_1390 (Acidilobus saccharovorans 345-15) (protein)
chain: T1 sequence (D9PZ08 1-490)
notes: full length, 490 residues, about 55 kDa on SDS-PAGE; pQE60 NcoI/BglII, expressed in E. coli DLT1270 pRARE2; purified by double heat treatment; no secretion signal; no tag mentioned (reverse primer carries the stop codon)
Km (purified protein [1]): 4650 µM
Vmax (purified protein [1]): 124 µmol/min/mg
kcat (purified protein [1]): 115 s⁻¹
kcat/Km (purified protein [1]): 24600 M⁻¹ s⁻¹
Km (purified protein [2]): 240 µM
Vmax (purified protein [2]): 344 µmol/min/mg
kcat (purified protein [2]): 318 s⁻¹
kcat/Km (purified protein [2]): 1.33e+06 M⁻¹ s⁻¹
Km (purified protein [3]): 2400 µM
Vmax (purified protein [3]): 62.8 µmol/min/mg
kcat (purified protein [3]): 58.2 s⁻¹
kcat/Km (purified protein [3]): 24200 M⁻¹ s⁻¹
Km (purified protein [4]): 2900 µM
Vmax (purified protein [4]): 499 µmol/min/mg
kcat (purified protein [4]): 462 s⁻¹
kcat/Km (purified protein [4]): 160000 M⁻¹ s⁻¹
Km (purified protein [5]): 2000 µM
Vmax (purified protein [5]): 469 µmol/min/mg
kcat (purified protein [5]): 434 s⁻¹
kcat/Km (purified protein [5]): 217000 M⁻¹ s⁻¹
